In US20090169562A1 (CRUCELL HOLLAND B V, published 2009) one finds binding result and OD492 nm data, which are given here for three molecules.

In test [1] the target is T1, bovine serum albumin (BSA) (bovine, UniProt P02769 25-607).
T1 construct: Control antigen coated at 1% in PBS (pH 7.4); also called negative control antigen
Nature of the test: phage ELISA, BSA coated. As for the experimental part:
(§1) Selected single-chain phage antibodies that were obtained in the screens described above were validated in ELISA for specific enterococcal binding activity, i.e. binding to one or more enterococcal strains prepared as described supra. 2.5×10⁸ bacteria were coated overnight at 4° C. to Maxisorp™ ELISA plates in 50 μl 50 mM carbonate buffer, pH 9.6. As negative controls, the complex antigens 2% ELK and 1% BSA both in PBS (pH 7.4) were coated. Wells were washed in PBS containing 0.1% (v/v) Tween-20 and blocked with 300 μl PBS containing 2% ELK for at least 1 hour at room temperature. The selected single-chain phage antibodies were incubated for 15 minutes in an equal volume of PBS containing 2% ELK to obtain blocked phage antibodies. The plates were emptied and the blocked single-chain phage antibodies were added to the wells. Incubation was allowed to proceed for one hour at room temperature, the plates were washed in PBS containing 0.1% (v/v) Tween-20 and bound phage antibodies were detected using an anti-M13 antibody conjugated to peroxidase. Absorbance at 492 nm was measured using a spectrophotometer. As a control, the procedure was performed simultaneously without single-chain phage antibody and with a negative control single-chain phage antibody directed against West Nile virus envelope protein (SC04-374).
A general note: In an ELISA, binding on a coated surface is turned into a signal by an enzyme label.

The target of test [2] is T1, bovine serum albumin (BSA). Nature of the test: phage ELISA, 1% BSA coated, anti-M13-HRP detection. Here is the method: as §1

T1 sequence (P02769 25-607 limits assumed): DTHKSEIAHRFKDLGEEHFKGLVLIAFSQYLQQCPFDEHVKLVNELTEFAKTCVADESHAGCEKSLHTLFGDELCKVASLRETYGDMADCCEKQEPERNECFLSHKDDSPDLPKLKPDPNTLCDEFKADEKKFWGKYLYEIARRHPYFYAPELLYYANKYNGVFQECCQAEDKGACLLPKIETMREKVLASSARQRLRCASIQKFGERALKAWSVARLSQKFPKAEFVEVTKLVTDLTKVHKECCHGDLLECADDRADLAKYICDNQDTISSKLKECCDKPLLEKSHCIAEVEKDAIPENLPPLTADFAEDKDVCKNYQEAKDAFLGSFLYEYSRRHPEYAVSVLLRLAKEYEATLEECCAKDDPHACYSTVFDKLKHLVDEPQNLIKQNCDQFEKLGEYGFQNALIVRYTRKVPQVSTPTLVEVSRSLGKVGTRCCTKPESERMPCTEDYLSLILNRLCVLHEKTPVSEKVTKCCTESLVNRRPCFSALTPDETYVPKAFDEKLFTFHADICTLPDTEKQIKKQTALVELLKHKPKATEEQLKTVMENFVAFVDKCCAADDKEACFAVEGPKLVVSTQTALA

B1: SC06-049 (scFv)
scFv: QVQLVQSGAEVKKPGESLKISCKGSGYSFTSYWIGWVRQMPGKGLEWMGIIYPGDSDTRYSPSFQGQVTISADKSIGTAYLQWSSLKASDTAMYYCARLFRVRGGHFDSWGQGTLVTVSSGTGGSGGTGSGTGGSTQSALTQPASVSGSPGQSITISCTGTNSDVGGYNYVSWYQQHPGKAPKLLIYDVTNRPSGVSNRFSASKSGNTASLTISGLQAEDEADYYCSSFTSSSTRVFGGGTKLTVL
notes: Vl 137-246); also called single-chain phage antibody SC06-049
Consider B1, for which the binding result in test [1] is recorded as “no binding”. This molecule displayed an OD492 nm in test [2] of 0.042 OD492 nm.

B2: SC06-016 (scFv)
scFv: QVQLVQSGPEVKKPGASVTVSCKASGYSFSSYGISWVRQAPGQGLEWMGRIIPVGGNTLYSQMFQGRVTMTSDTSTSTVYLELSSLRSEDTAVYFCARDGGRWQFDYWGQGTLVTVSSGTGGSGGTGSGTGGSTDIQLTQSPSSVSASVGDRVTITCRASQGISNWLAWYQQKPGKAPELLIYAASSLQSGVPPRFSGSASGTDFTLTISSLQPEDFATYYCQQSKNFPYTFGQGTKVEIK
notes: Vl 135-241); also called single-chain phage antibody SC06-016
B2: in test [1], the binding result was “no binding”. Also, in test [2], the OD492 nm is 0.044 OD492 nm.

B3: SC06-043 (scFv)
scFv: EVQLVESGAEVKKPGESLKISCKGSGYSFTSYWIGWVRQMPGKGLEWMGIIYPGDSDTRYSPSFQGQVTISADKSISTAYLQWSSLKASDTAMYYCARRYCSGGTCSDGFDIWGQGTMVTVSSGTGGSGGTGSGTGGSTQSALTQPPSASGSPGQSVTISCTGTSSDVGGYNYVSWYQQHPGKAPKLMIYEVSKRPSGVPDRFSGSKSGNTASLTVSGLQAEDEADYYCSSYAGSNNLVFGGGTKLTVL
notes: Vl 140-249); also called single-chain phage antibody SC06-043
For B3, in test [1], the binding result was “no binding”. In test [2], this molecule yielded an OD492 nm of 0.045 OD492 nm.
